Measured values reported in publication PMC8761494, “Structural basis of Nrd1–Nab3 heterodimerization” (Life Science Alliance, 2022).
Several values for one entry are separate records, joined by “and”; a condition that tells them apart may be missing. Identical values can stand only once. Like-named read-outs stand apart in the source and are kept apart here. Blank lines part the entries; values can stand above or below the binder they belong to.

Legend:
Nrd1_(1-222) [1] = target: T1, Nrd1_(1-222) (S. cerevisiae, UniProt P53617 1-222); test: ITC; Nab3_(191-261) (198 μM) in the syringe titrated into Nrd1 variants in the cell (19-54 μM); 15°C; 20 mM potassium phosphate pH 7.0, 150 mM NaCl, 1 mM β-mercaptoethanol; one-site binding model; duplicates; conditions: both partners purified
T1 construct: also called Nrd1 construct including the CID and NAID; source: E. coli BL21(DE3), purified (IMAC, TEV digestion, second IMAC, gel filtration); not shown: TxA (E. coli thioredoxin A), N-terminal, cleaved; His6, N-terminal, cleaved
T1 sequence (looked up): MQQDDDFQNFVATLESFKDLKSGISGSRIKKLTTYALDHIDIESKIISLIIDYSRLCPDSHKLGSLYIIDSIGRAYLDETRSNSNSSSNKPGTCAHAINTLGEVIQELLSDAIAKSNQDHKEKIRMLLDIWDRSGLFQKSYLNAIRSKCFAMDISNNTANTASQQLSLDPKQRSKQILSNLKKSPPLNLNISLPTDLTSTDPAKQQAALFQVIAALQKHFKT

Nrd1_(147-222/290-489) [2] = target: T2, Nrd1_(147-222/290-489) (S. cerevisiae, UniProt P53617 147-489, lacking residues 223–289); test: as above; conditions: both partners purified
T2 construct: no linker is mentioned; source: E. coli BL21(DE3), purified (IMAC, TEV digestion, second IMAC, gel filtration); not shown: TxA (E. coli thioredoxin A), N-terminal, cleaved; His6, N-terminal, cleaved
T2 sequence (looked up): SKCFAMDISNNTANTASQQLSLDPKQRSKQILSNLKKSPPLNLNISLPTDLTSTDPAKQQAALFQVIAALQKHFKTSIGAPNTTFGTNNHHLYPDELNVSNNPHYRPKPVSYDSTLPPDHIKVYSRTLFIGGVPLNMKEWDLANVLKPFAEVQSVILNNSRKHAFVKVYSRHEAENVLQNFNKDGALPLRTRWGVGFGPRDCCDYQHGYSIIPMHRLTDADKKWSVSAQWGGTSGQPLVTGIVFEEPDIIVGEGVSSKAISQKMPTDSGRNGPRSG

Nrd1_(1-222) [3] = target: T3, Nrd1_(1-222) (S. cerevisiae, UniProt P53617 1-222); test: ITC
T3 chain: T1 sequence (looked up)

Nrd1_(147-222/290-489) [4] = target: T4, Nrd1_(147-222/290-489) (S. cerevisiae, UniProt P53617 147-489, lacking residues 223–289); test: ITC
T4 sequence: T2 sequence (looked up)

Nrd1_(1-222) [5] = target: T3, Nrd1_(1-222); test: ITC
[6] = target: T5, txA-HTEV-Nrd1_(147-222) NAID (S. cerevisiae, UniProt P53617 147-222); test: ITC
T5 chain: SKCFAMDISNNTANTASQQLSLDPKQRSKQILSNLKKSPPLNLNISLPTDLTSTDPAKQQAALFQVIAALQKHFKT

Nrd1_(147-222/290-489) [7] = target: T4, Nrd1_(147-222/290-489); test: ITC; remark: listed apart in the source
Nrd1_(1-222) [8] = target: T3, Nrd1_(1-222); test: ITC
[9] = target: T5, txA-HTEV-Nrd1_(147-222) NAID; test: ITC
Nrd1_(147-222/290-489) [10] = target: T4, Nrd1_(147-222/290-489); test: ITC; remark: listed apart in the source
[11] = target: T6, Nrd1 part (residues 158-222) of the Nrd1_(158-222)-Nab3_(202-261) chimera (S. cerevisiae, UniProt P53617 158-222); test: NMR structure; the two stretches joined on one chain (chimera Nrd1_(158-222)-Nab3_(202-261)); 10 mM sodium acetate pH 5.1, 25 mM NaCl, 1 mM DTT, 25°C, ~1 mM protein; conditions: both partners purified
T6 construct: also called Nrd1 segment of the Nrd1–Nab3 chimera; source: E. coli BL21(DE3), purified (IMAC, TEV digestion, second IMAC, gel filtration); not shown: TxA (E. coli thioredoxin A), N-terminal, cleaved; His6, N-terminal, cleaved
T6 sequence (looked up): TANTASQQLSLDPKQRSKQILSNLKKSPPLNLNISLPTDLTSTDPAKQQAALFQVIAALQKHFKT

stoichiometry N (Nrd1_(1-222) [1]): 0.4 | fold tighter binding than with Nrd1_(1-222) (Nrd1_(147-222/290-489) [2]): ~4 fold | Kd (Nrd1_(1-222) [3]): 130 nM | Kd (Nrd1_(147-222/290-489) [4]): 36 nM | Ka (Nrd1_(1-222) [5]): 7.22e+06 M⁻¹ | Ka [6]: 4.06e+07 M⁻¹ and 4.34e+07 M⁻¹ | Ka (Nrd1_(147-222/290-489) [7]): 4.97e+07 M⁻¹ | Kd (Nrd1_(1-222) [8]): 140 nM | Kd [9]: 23 nM and 25 nM | Kd (Nrd1_(147-222/290-489) [10]): 20 nM
B1: Nrd1 interaction domain of Nab3 (Nab3 191-261) (domain or fragment, S. cerevisiae, UniProt P38996 191-261, looked up)
chain: REENDNTHFPTNMENVNYDLLQKQVKYIMDSNMLNLPQFQHLPQEEKMSAILAMLNSNSDTALSVPPHDST
notes: 15N/13C-labelled or unlabelled for NMR; natural abundance for ITC; also called NRID; Nab3 NRID; source: E. coli BL21(DE3), purified (IMAC, TEV digestion, second IMAC, gel filtration); not shown: TxA (E. coli thioredoxin A), N-terminal, cleaved; His6, N-terminal, cleaved

binding result [11]: binds
B2: Nab3 part (residues 202-261) of the Nrd1_(158-222)-Nab3_(202-261) chimera (domain or fragment, S. cerevisiae, UniProt P38996 202-261, looked up)
chain: NMENVNYDLLQKQVKYIMDSNMLNLPQFQHLPQEEKMSAILAMLNSNSDTALSVPPHDST
notes: Nab3, S. cerevisiae, residues 202-261; also called Nab3 segment of the Nrd1–Nab3 chimera; source: E. coli BL21(DE3), purified (IMAC, TEV digestion, second IMAC, gel filtration)
